From patent US20210104294A1 (published 2021) come the findings set out here.

Targets include HLA-B*51:01 (human); HLA-A*29:02 (human, UniProt P04439 25-308); HLA-B*54:01 (human, UniProt P01889 25-309).
Holding throughout (experiment): in vitro peptide-MHC affinity measurement
In a further experiment the target is T1, HLA-A*01:01 (human, UniProt P04439-2 25-302).
T1 chain: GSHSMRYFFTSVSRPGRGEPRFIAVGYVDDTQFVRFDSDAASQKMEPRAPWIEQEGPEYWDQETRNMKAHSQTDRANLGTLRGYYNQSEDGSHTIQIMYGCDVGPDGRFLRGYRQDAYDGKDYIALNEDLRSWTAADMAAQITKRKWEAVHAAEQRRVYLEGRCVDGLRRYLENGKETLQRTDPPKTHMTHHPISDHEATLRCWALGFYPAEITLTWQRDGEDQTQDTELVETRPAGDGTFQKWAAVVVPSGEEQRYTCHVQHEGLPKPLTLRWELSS

B1: DGLLRVLTV (peptide)
chain: DGLLRVLTV
The molecule B1 came in with an IC50 in the experiment with HLA-B*51:01 of 0.2 nM.

B2: DGRLVINRV (peptide)
chain: DGRLVINRV
For the molecule B2, it took 13.5 nM to reach half-maximal inhibition with HLA-B*51:01 (IC50). Against the preceding molecule, the IC50 is about 68-fold higher.

B3: YLPALKVEY (peptide)
chain: YLPALKVEY
Turning to B3, in the experiment with HLA-A*29:02, the IC50 worked out at 2.6 nM.

B4: KLDLLEQEY (peptide)
chain: KLDLLEQEY
In the experiment with HLA-A*01:01, B4 came in with a half-inhibitory concentration (IC50) of 70.6 nM.

B5: DTEFPNFKY (peptide)
chain: DTEFPNFKY
In the experiment with HLA-A*01:01, B5 displayed an IC50 of 80.8 nM.

B6: YGFVNYVTA (peptide)
chain: YGFVNYVTA
The molecule B6 registered a half-maximal inhibitory concentration (IC50) with HLA-B*54:01 of 6 nM. This counts as single-digit nanomolar.

B7: DAYPQRIKF (peptide)
chain: DAYPQRIKF
In the experiment with HLA-B*51:01, B7 displayed a 50% inhibitory concentration (IC50) of 31 nM.

B8: ATDGKVLLW (peptide)
chain: ATDGKVLLW
B8 gave a half-maximal inhibitory concentration (IC50) with HLA-A*01:01 of 191 nM.

B9: VPPLVPKVL (peptide)
chain: VPPLVPKVL
The molecule B9 returned an IC50 with HLA-B*51:01 of 56.3 nM.

B10: FPKETFEGP (peptide)
chain: FPKETFEGP
In the case of B10, the IC50 with HLA-B*54:01 is 16.4 nM. That is a double-digit nanomolar value.

B11: DAPLNIRSI (peptide)
chain: DAPLNIRSI
As to B11, in the experiment with HLA-B*51:01, the concentration for half-maximal inhibition (IC50) amounted to 6.5 nM.

B12: GLDDKLLHY (peptide)
chain: GLDDKLLHY
B12 showed a concentration for half-maximal inhibition (IC50) in the experiment with HLA-A*29:02 of 21.3 nM.

B13: GLPDLVAKY (peptide)
chain: GLPDLVAKY
B13 gave a half-inhibitory concentration (IC50) with HLA-A*29:02 of 29.7 nM. This IC50 and that of the molecule before are within 1.5-fold of each other.

B14: FVEILIPVA (peptide)
chain: FVEILIPVA
Consider B14, for which the 50% inhibitory concentration (IC50) with HLA-B*54:01 came out at 12.2 nM. This lies in the double-digit nanomolar range.

B15: ALSDLALHF (peptide)
chain: ALSDLALHF
B15 displayed an IC50 in the experiment with HLA-A*29:02 of 6 nM.

B16: TTDGYLLRL (peptide)
chain: TTDGYLLRL
On to B16, for which, in the experiment with HLA-A*01:01, the concentration for half-maximal inhibition (IC50) was determined as 78.9 nM.

B17: TPESKIRFV (peptide)
chain: TPESKIRFV
As to B17, the midpoint of inhibition in the experiment with HLA-B*51:01, the IC50, lay at 84.8 nM.

B18: FYPELKLAY (peptide)
chain: FYPELKLAY
With B18, the midpoint of inhibition with HLA-A*29:02, the IC50, lay at 0.2 nM. In other words, the sub-nanomolar range.

B19: SAPVNFISA (peptide)
chain: SAPVNFISA
In turn, B19 yielded an IC50 with HLA-B*54:01 of 16.6 nM.

B20: YVPEHWEYY (peptide)
chain: YVPEHWEYY
B20: in the experiment with HLA-A*01:01, the half-inhibitory concentration (IC50) is 11.1 nM.

B21: DGYVVKETI (peptide)
chain: DGYVVKETI
B21 had a half-inhibitory concentration (IC50) with HLA-B*51:01 of 13.4 nM.

B22: DGLRDLPSI (peptide)
chain: DGLRDLPSI
Molecule B22 registered an IC50 with HLA-B*51:01 of 12.6 nM.

B23: FLWPEAFLY (peptide)
chain: FLWPEAFLY
Molecule B23 came in with a half-inhibitory concentration (IC50) with HLA-A*01:01 of 1.3 nM.

B24: LPLDIQIFY (peptide)
chain: LPLDIQIFY
B24 yielded a 50% inhibitory concentration (IC50) with HLA-A*29:02 of 4.6 nM.

B25: VALLVGEKV (peptide)
chain: VALLVGEKV
In the case of B25, it took 144 nM to reach half-maximal inhibition with HLA-B*51:01 (IC50).

B26: YIIEREPLI (peptide)
chain: YIIEREPLI
As for B26, half-maximal inhibition with HLA-B*51:01 (IC50) required 1790 nM. This IC50 lies about 12-fold higher than the previous one.

B27: IIYPTPKVV (peptide)
chain: IIYPTPKVV
Molecule B27 came in with a concentration for half-maximal inhibition (IC50) in the experiment with HLA-B*51:01 of 38 nM.

B28: HFLDRHLVF (peptide)
chain: HFLDRHLVF
B28 came in with an IC50 in the experiment with HLA-A*29:02 of 1.6 nM. This lies in the single-digit nanomolar range.

B29: YPVYQPVGP (peptide)
chain: YPVYQPVGP
As for B29, in the experiment with HLA-B*54:01, the IC50 is 1.7 nM.

By IC50 is commonly meant the concentration needed to halve the response being measured. A high value points to lower potency.
